B1: Rho-related GTP-binding protein RhoN (Homo sapiens), P52198 (parent)
chain: MEGQSGRCKIVVVGDAECGKTALLQVFAKDAYPGSYVPTVFENYTASFEIDKRRIELNMWDTSGSSYYDNVRPLAYPDSDAVLICFDISRPETLDSVLKKWQGETQEFCPNAKVVLVGCKLDMRTDLATLRELSKQRLIPVTHEQGTVLAKQVGAVSYVECSSRSSERSVRDVFHVATVASLGRGHRQLRRTDSRRGMQRSAQLSGRPDRGNEGEIHKDRAKSCNLM
partner: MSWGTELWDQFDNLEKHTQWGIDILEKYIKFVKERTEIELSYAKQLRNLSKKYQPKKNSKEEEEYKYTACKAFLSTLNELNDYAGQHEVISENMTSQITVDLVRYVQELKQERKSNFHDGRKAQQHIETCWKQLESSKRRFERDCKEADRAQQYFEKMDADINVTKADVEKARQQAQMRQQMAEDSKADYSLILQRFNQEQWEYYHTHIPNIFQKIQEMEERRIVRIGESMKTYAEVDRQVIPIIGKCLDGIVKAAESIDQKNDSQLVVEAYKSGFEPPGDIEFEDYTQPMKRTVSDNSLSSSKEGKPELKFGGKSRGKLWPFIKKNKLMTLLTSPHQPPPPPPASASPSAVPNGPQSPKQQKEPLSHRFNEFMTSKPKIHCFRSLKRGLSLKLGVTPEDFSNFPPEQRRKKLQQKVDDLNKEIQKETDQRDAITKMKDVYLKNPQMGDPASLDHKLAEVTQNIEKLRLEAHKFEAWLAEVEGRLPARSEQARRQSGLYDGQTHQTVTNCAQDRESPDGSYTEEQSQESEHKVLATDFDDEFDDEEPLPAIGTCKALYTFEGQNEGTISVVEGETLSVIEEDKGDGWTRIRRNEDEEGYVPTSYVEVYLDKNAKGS

Variants of: B1
Details: with fnbp1_rat Fnbp1, Q8R511

| effect of a mutation on the interaction | Variant |
| --- | --- |
| increasing interaction | A16V |

Reference: IntAct's records for PubMed 14732713
